We go through 14 sequences from the Immune Epitope Database (IEDB).

A word on the Kd: it is the concentration at which binding is half-saturated.

Some results are limits rather than exact numbers.

In assay [1] the target is HLA-B*40:02. The assay is described as follows: IEDB peptide-MHC binding, purified MHC/competitive/radioactivity; filed as Kd, often an IC50 or EC50 that approximates it; ≥ and ≤ were set here for values at or beyond the usual limits of such assays.
Assay [2] concerns the target HLA-B*44:02. The description is as above.
The target in assay [3] is HLA-B*40:01. Described as above.
For assay [4], the target named is HLA-B*45:01. The description is as above.
Assay [5] has as its target HLA-B*18:01. The assay is described as above.
In assay [6] the target is HLA-B*44:03. The description is as above.
The target of assay [7] is HLA-A*32:01. Described as above.
Assay [8] addresses HLA-B*15:01. Briefly: IEDB peptide-MHC binding, purified MHC/competitive/fluorescence; filed as Kd, often an IC50 or EC50 that approximates it; ≥ and ≤ were set here for values at or beyond the usual limits of such assays. Particulars: source organism: Paracoccus denitrificans PD1222.
For assay [9], the target named is HLA-A*11:01. The assay is described as follows: IEDB peptide-MHC binding, purified MHC/competitive/radioactivity; filed as Kd, often an IC50 or EC50 that approximates it; ≥ and ≤ were set here for values at or beyond the usual limits of such assays. To be noted: source organism: Dengue virus 3 Martinique/1243/1999.
Assay [10] deals with HLA-A*30:01. The description is as above.
For assay [11], the target named is HLA-A*26:01. Described as above.
Assay [12] has as its target HLA-A*29:02. The description is as above. Particulars: source organism: Mammarenavirus whitewaterense.
In assay [13] the target is HLA-A*30:02. The assay is described as above. To be noted: source organism: Mammarenavirus whitewaterense.
The target of assay [14] is HLA-A*01:01. The assay is described as above. To be noted: source organism: Mammarenavirus whitewaterense.
Setting [15] is: source organism: Mammarenavirus brazilense.
Setting [16] is: source organism: SARS coronavirus Tor2.
Setting [17] is: source organism: Dengue virus 1 Singapore/S275/1990.
Where [18] appears, read: source organism: Dengue virus 2 16681-PDK53.
The mark [19] stands for this setting: source organism: Mammarenavirus machupoense.
Setting [20] is: source organism: Mammarenavirus whitewaterense.

AENDIVEAL: the Kd in assay [1] (setting [15]) was 0.0252 µM; in assay [2] (setting [15]) it was 0.0435 µM; in assay [3] (setting [15]) it was 0.00587 µM; in [4] (setting [15]), 1.03 µM; in assay [5] (setting [15]), 10.8 µM; in assay [6] (setting [15]), 0.108 µM.
For AEWVLAYMLF, the equilibrium dissociation constant (Kd) was 0.0192 µM in assay [1] (setting [16]); 0.0162 µM in assay [2] (setting [16]); 0.152 µM in [3] (setting [16]); 0.041 µM in assay [4] (setting [16]); 0.327 µM in [5] (setting [16]); 0.00916 µM in assay [6] (setting [16]).
As to AGILARWGSF, the values for the Kd in assay [7] (setting [17]) and in assay [2] (setting [17]) were 1.14 µM and 12.6 µM, respectively.
Turning to ALAAAGAAY, the Kd in assay [8] turned out to be 0.123 µM.
On to ATMANEMGF, for which the Kd in assay [7] (source organism: Dengue virus 2 Jamaica/1409/1983) turned out to be 0.138 µM.
As to ATQLATLRK, the Kd in assay [9] came out at 0.0678 µM; in [10] (source organism: Dengue virus 3 Martinique/1243/1999), 0.00576 µM.
Turning to CEEMLDNRAT, the Kd is 8.59 µM in assay [1] (setting [16]); 0.56 µM in assay [2] (setting [16]); 18.3 µM in assay [3] (setting [16]); 0.139 µM in assay [4] (setting [16]); no less than 46.1 µM in [5] (setting [16]); 10.3 µM in assay [6] (setting [16]).
In the case of CTILAVVSVS, the Kd in assay [11] (setting [18]) is no less than 69.7 µM; in assay [10] (setting [18]), 9.7 µM.
DESGLNISGY: the Kd is no less than 70.8 µM in assay [1] (setting [15]); 12.8 µM in assay [2] (setting [15]); no less than 69.5 µM in assay [3] (setting [15]); no less than 70 µM in assay [4] (setting [15]); 0.199 µM in assay [5] (setting [15]); 7.83 µM in [6] (setting [15]).
DESKKEINLL: the Kd in assay [1] (setting [19]) was no less than 70.8 µM; in [2] (setting [19]), no less than 70.2 µM; in assay [3] (setting [19]), no less than 69.5 µM; in assay [4] (setting [19]) it was no less than 70 µM; in [5] (setting [19]), 2.88 µM; in assay [6] (setting [19]), no less than 70.1 µM.
With DIMALIVSI, the Kd in [7] (source organism: Vaccinia virus) amounted to 0.114 µM.
DLGLLYTAKY: the Kd in [7] (setting [20]) is no less than 69.9 µM; in assay [12], 0.386 µM; in assay [13], 0.0369 µM; in [11] (setting [20]) it was 1 µM; in [14], 13.7 µM; in assay [10] (setting [20]), no less than 58.4 µM.
With EEAIRHVRA, the Kd was 5.53 µM in assay [1] (setting [16]); 2.78 µM in assay [2] (setting [16]); 5.59 µM in assay [3] (setting [16]); 0.0398 µM in [4] (setting [16]); no less than 55.7 µM in [5] (setting [16]); 5.81 µM in [6] (setting [16]).
For EEPVALLPLS, the Kd was determined as 4.41 µM in assay [1] (setting [19]); 8.42 µM in assay [2] (setting [19]); 5.16 µM in assay [3] (setting [19]); 0.795 µM in assay [4] (setting [19]); 15.5 µM in [5] (setting [19]); 2.94 µM in assay [6] (setting [19]).
